Patent US20250340857A1 (SEISMIC THERAPEUTIC, published 2025)
Substitutions are numbered along the chain they refer to.

B1: FP141 (Fc fusion)
chain 1: DKTHTCPPCPAPEAAGAPSVFLFPPKPKDTLMISRTPEVTCVVVDVSHEDPEVKFNWYVDGVEVHNAKTKPREEQQNSTYRVVSVLTVLHQDWLNGKEYKCKVSNKALKAPIEKTISKAKGQPREPQVYTLPPSRDELTKNQVSLWCLVKGFYPSDIAVEWESNGQPENNYKTTPPVLDSDGSFFLYSKLTVDKSRWQQGNVFSCSVMHEALHNHYTQKSLSLSPGGGGSGGGGSGGGGSTALGRRKAEDRIKETLWADGVKIDEKDFEHIKSSHEDYFAVEYGKGSGYYDVNKKMDSEDTALCVGAVVTNMFHWWVDQNRENIEKFKKQDPENNGVMKFEGVKEATVDELNEFYRDNRDNYADQSRFFDLIKKHFGNKALNPEELFELYFNGFYYGSSHRYIEDNEPAQNNLFSKVLENNKLLNPERSYGIDGFSNNVINALKSHKVLGLVYTTPLRYRHIISMWGADIDQDGKVKAIYVTDSDDREITFNDNSKRRIGMIRYDVLVDDNGNIRFTGKGATHKEEGAIYAGLYSLSRGDEVWEDYFKKYPEVQENL
chain 2: DKTHTCPPCPAPEAAGAPSVFLFPPKPKDTLMISRTPEVTCVVVDVSHEDPEVKFNWYVDGVEVHNAKTKPREEQQNSTYRVVSVLTVLHQDWLNGKEYKCKVSNKALKAPIEKTISKAKGQPREPQVYTLPPSRDELTKNQVSLSCAVKGFYPSDIAVEWESNGQPENNYKTTPPVLDSDGSFFLVSKLTVDKSRWQQGNVFSCSVMHEALHNHYTQKSLSLSPG
B2: FP142 (Fc fusion)
chain 1: B1 chain 1 with S134C
chain 2: B1 chain 2 with Y129C
B3: FP133 (Fc fusion)
chain: DKTHTCPPCPAPEAAGAPSVFLFPPKPKDTLMISRTPEVTCVVVDVSHEDPEVKFNWYVDGVEVHNAKTKPREEQQNSTYRVVSVLTVLHQDWLNGKEYKCKVSNKALKAPIEKTISKAKGQPREPQVYTLPPSRDELTKNQVSLTCLVKGFYPSDIAVEWESNGQPENNYKTTPPVLDSDGSFFLYSKLTVDKSRWQQGNVFSCSVMHEALHNHYTQKSLSLSPGGGGSKGGGSKTALGRRKAEDRIKETLWADGVKIDEKDFEHIKSSHEDYFAVEYGKGSGYYDVNKKMDSEDTALCVGAVVTNMFHWWVDQNRENIEKFKKQDPENNGVMKFEGVKEATVDELNEFYRDNRDNYADQSRFFDLIKKHFGNKALNPEELFELYFNGFYYGSSHRYIEDNEPAQNNLFSKVLENNKLLNPERSYGIDGFSNNVINALKSHKVLGLVYTTPLRYRHIISMWGADIDQDGKVKAIYVTDSDDREITFNDNSKRRIGMIRYDVLVDDNGNIRFTGKGATHKEEGAIYAGLYSLSRGDEVWEDYFKKYPEVQENL
B4: FP136 (Fc fusion)
chain: B3 chain with G228S, G229A, S230G, G233S, G234A, S235G
B5: FP139 (Fc fusion)
chain: B3 chain with G228S, G229S, S230A, K231P, G233S, G234S, S235A, K236P
B6: FP140 (Fc fusion)
chain: DKTHTCPPCPAPEAAGAPSVFLFPPKPKDTLMISRTPEVTCVVVDVSHEDPEVKFNWYVDGVEVHNAKTKPREEQQNSTYRVVSVLTVLHQDWLNGKEYKCKVSNKALKAPIEKTISKAKGQPREPQVYTLPPSRDELTKNQVSLTCLVKGFYPSDIAVEWESNGQPENNYKTTPPVLDSDGSFFLYSKLTVDKSRWQQGNVFSCSVMHEALHNHYTQKSLSLSPGGSSAPGSSAPGSSAPTALGRRKAEDRIKETLWADGVKIDEKDFEHIKSSHEDYFAVEYGKGSGYYDVNKKMDSEDTALCVGAVVTNMFHWWVDQNRENIEKFKKQDPENNGVMKFEGVKEATVDELNEFYRDNRDNYADQSRFFDLIKKHFGNKALNPEELFELYFNGFYYGSSHRYIEDNEPAQNNLFSKVLENNKLLNPERSYGIDGFSNNVINALKSHKVLGLVYTTPLRYRHIISMWGADIDQDGKVKAIYVTDSDDREITFNDNSKRRIGMIRYDVLVDDNGNIRFTGKGATHKEEGAIYAGLYSLSRGDEVWEDYFKKYPEVQENL
B7: FP134 (Fc fusion)
chain: DKTHTCPPCPAPEAAGAPSVFLFPPKPKDTLMISRTPEVTCVVVDVSHEDPEVKFNWYVDGVEVHNAKTKPREEQQNSTYRVVSVLTVLHQDWLNGKEYKCKVSNKALKAPIEKTISKAKGQPREPQVYTLPPSRDELTKNQVSLTCLVKGFYPSDIAVEWESNGQPENNYKTTPPVLDSDGSFFLYSKLTVDKSRWQQGNVFSCSVMHEALHNHYTQKSLSLSPGGGGSKGGGSKGGGSKTALGRRKAEDRIKETLWADGVKIDEKDFEHIKSSHEDYFAVEYGKGSGYYDVNKKMDSEDTALCVGAVVTNMFHWWVDQNRENIEKFKKQDPENNGVMKFEGVKEATVDELNEFYRDNRDNYADQSRFFDLIKKHFGNKALNPEELFELYFNGFYYGSSHRYIEDNEPAQNNLFSKVLENNKLLNPERSYGIDGFSNNVINALKSHKVLGLVYTTPLRYRHIISMWGADIDQDGKVKAIYVTDSDDREITFNDNSKRRIGMIRYDVLVDDNGNIRFTGKGATHKEEGAIYAGLYSLSRGDEVWEDYFKKYPEVQENL
B8: FP137 (Fc fusion)
chain: B7 chain with G228S, G229A, S230G, G233S, G234A, S235G, G238S, G239A, S240G

molecular target: Human IgE antibody (human); experiment: cell-based or functional assay

Binder | EC50 CE-SDS IgE | EC50 MSD IgE
B1 | 0.75 nM | 0.874 nM
B2 | 3.8 nM | 
B3 | 1.15 nM | 
B4 | 0.61 nM | 
B5 | 0.11 nM | 
B6 | 0.43 nM | 1.35 nM
B7 | 2.36 nM | 
B8 | 1.28 nM | 
